Experimental data reported in paper PMC5727259, “Voltage-gated sodium channels assemble and gate as dimers” (Nature Communications, 2017).

B1: GFP-tagged chloride channel ClC-3 (natural protein, UniProt P51790 1-818, looked up)
chain: MESEQLFHRGYYRNSYNSITSASSDEELLDGAGVIMDFQTSEDDNLLDGDTAVGTHYTMTNGGSINSSTHLLDLLDEPIPGVGTYDDFHTIDWVREKCKDRERHRRINSKKKESAWEMTKSLYDAWSGWLVVTLTGLASGALAGLIDIAADWMTDLKEGICLSALWYNHEQCCWGSNETTFEERDKCPQWKTWAELIIGQAEGPGSYIMNYIMYIFWALSFAFLAVSLVKVFAPYACGSGIPEIKTILSGFIIRGYLGKWTLMIKTITLVLAVASGLSLGKEGPLVHVACCCGNIFSYLFPKYSTNEAKKREVLSAASAAGVSVAFGAPIGGVLFSLEEVSYYFPLKTLWRSFFAALVAAFVLRSINPFGNSRLVLFYVEYHTPWYLFELFPFILLGVFGGLWGAFFIRANIAWCRRRKSTKFGKYPVLEVIIVAAITAVIAFPNPYTRLNTSELIKELFTDCGPLESSSLCDYRNDMNASKIVDDIPDRPAGIGVYSAIWQLCLALIFKIIMTVFTFGIKVPSGLFIPSMAIGAIAGRIVGIAVEQLAYYHHDWFIFKEWCEVGADCITPGLYAMVGAAACLGGVTRMTVSLVVIVFELTGGLEYIVPLMAAVMTSKWVGDAFGREGIYEAHIRLNGYPFLDAKEEFTHTTLAADVMRPRRNDPPLAVLTQDNMTVDDIENMINETSYNGFPVIMSKESQRLVGFALRRDLTIAIESARKKQEGIVGSSRVCFAQHTPSLPAESPRPLKLRSILDMSPFTVTDHTPMEIVVDIFRKLGLRQCLVTHNGRLLGIITKKDILRHMAQTANQDPASIMFN
notes: chloride channel ClC-3 from plasmid pCLC3sGFP (Addgene); also called ClC-3-GFP; pCLC3sGFP; source: HEK293, transfected, in lysate (CHAPS buffer)
B2: transient outward potassium channel Kv4.3 tagged with GFP (natural protein, UniProt Q9UK17 1-655, looked up)
chain: MAAGVAAWLPFARAAAIGWMPVANCPMPLAPADKNKRQDELIVLNVSGRRFQTWRTTLERYPDTLLGSTEKEFFFNEDTKEYFFDRDPEVFRCVLNFYRTGKLHYPRYECISAYDDELAFYGILPEIIGDCCYEEYKDRKRENAERLMDDNDSENNQESMPSLSFRQTMWRAFENPHTSTLALVFYYVTGFFIAVSVITNVVETVPCGTVPGSKELPCGERYSVAFFCLDTACVMIFTVEYLLRLFAAPSRYRFIRSVMSIIDVVAIMPYYIGLVMTNNEDVSGAFVTLRVFRVFRIFKFSRHSQGLRILGYTLKSCASELGFLLFSLTMAIIIFATVMFYAEKGSSASKFTSIPASFWYTIVTMTTLGYGDMVPKTIAGKIFGSICSLSGVLVIALPVPVIVSNFSRIYHQNQRADKRRAQKKARLARIRVAKTGSSNAYLHSKRNGLLNEALELTGTPEEEHMGKTTSLIESQHHHLLHCLEKTTGLSYLVDDPLLSVRTSTIKNHEFIDEQMFEQNCMESSMQNYPSTRSPSLSSHPGLTTTCCSRRSKKTTHLPNSNLPATRLRSMQELSTIHIQGSEQPSLTTSRSSLNLKADDGLRPNCKTSQITTAIISIPTPPALTPEGESRPPPASPGPNTNIPSIASNVVKVSAL
notes: potassium channel Kv4.3 from plasmid pcDNA3.1-Kv4.3-GFP; also called Kv4.3-GFP; pcDNA3.1-Kv4.3-GFP; source: HEK293, transfected, in lysate (CHAPS buffer)

Biological target: the molecule itself
Test: single-molecule pull-down (SiMPull) with GFP photobleaching step counting; lysate of transfected HEK293 cells (0.4% CHAPS buffer) perfused over anti-GFP antibody on passivated coverslips; low surface density (0.05 molecules/µm^2); TIRF imaging

| Protein | stoichiometry N |
| --- | --- |
| B1 | 2 |
| B2 | 4 |
